In the supplement of paper PMC9112550, “Optimization of the antimicrobial peptide Bac7 by deep mutational scanning” (BMC Biology, 2022):

Test system: Escherichia coli TOP10
Assay: shrunken log2 fold change of peptide-encoding DNA abundance (4.5 h post-induction vs induction); higher = less antimicrobial activity (less host growth inhibition)
Settings: time post-induction: 4.5 h; library: site-saturation at positions 5, 18, 19, 20
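Further: peptides expressed intracellularly from a pBAD plasmid library in pooled LB shake-flask culture, induced with 0.3% L-arabinose, DNA abundance read by NGS, three biological replicates, DESeq2 with apeglm shrinkage.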

Sequence	shrunken log2 fold change
RRIRCRPPRLPRPRPRPHNPPRP	-0.377
RRIRLRPPRLPRPRPRPYDAPRP	-0.211
RRIRVRPPRLPRPRPRPYMGPRP	-0.895
RRIRSRPPRLPRPRPRPFGMPRP	-0.25
RRIRARPPRLPRPRPRPVHAPRP	0.768
RRIRFRPPRLPRPRPRPFGHPRP	-0.19
RRIRRRPPRLPRPRPRPCPYPRP	0.0825
RRIRTRPPRLPRPRPRPCEWPRP	0.013
RRIRCRPPRLPRPRPRPDDFPRP	0.0333
RRIRIRPPRLPRPRPRPDCTPRP	0.0385
RRIRYRPPRLPRPRPRPGQAPRP	0.0475
RRIRSRPPRLPRPRPRPWPLPRP	-0.293
RRIRIRPPRLPRPRPRPDLSPRP	-0.000521
RRIRIRPPRLPRPRPRPCTFPRP	-0.212
RRIRARPPRLPRPRPRPCRRPRP	-0.085
RRIRARPPRLPRPRPRPRSKPRP	0.374
RRIRWRPPRLPRPRPRPLPAPRP	1.25
RRIRIRPPRLPRPRPRPKDMPRP	-0.221
RRIRIRPPRLPRPRPRPYYRPRP	-0.105
RRIRCRPPRLPRPRPRPWGWPRP	0.221
RRIRDRPPRLPRPRPRPRGQPRP	0.141
RRIRHRPPRLPRPRPRPQYEPRP	-0.0461
RRIRNRPPRLPRPRPRPRAKPRP	0.0711
RRIRARPPRLPRPRPRPAFQPRP	0.174
RRIRVRPPRLPRPRPRPYFNPRP	-0.729

Sequence	shrunken log2 fold change
RRIRQRPPRLPRPRPRPDVFPRP	-0.211
RRIRVRPPRLPRPRPRPELQPRP	-0.0355
RRIRCRPPRLPRPRPRPKCYPRP	-0.353
RRIRGRPPRLPRPRPRPCVKPRP	0.063
RRIRGRPPRLPRPRPRPDAGPRP	0.601
RRIRSRPPRLPRPRPRPRTNPRP	0.057
RRIRLRPPRLPRPRPRPKGEPRP	0.149
RRIRCRPPRLPRPRPRPQTPPRP	0.48
RRIRMRPPRLPRPRPRPCMTPRP	1.65
RRIRVRPPRLPRPRPRPCSMPRP	-0.177
RRIRFRPPRLPRPRPRPRMMPRP	-0.404
RRIRERPPRLPRPRPRPLQPPRP	0.468
RRIRMRPPRLPRPRPRPSQAPRP	0.689
RRIRPRPPRLPRPRPRPPYMPRP	-0.288
RRIRYRPPRLPRPRPRPMFSPRP	-1.07
RRIRMRPPRLPRPRPRPDLTPRP	0.869
RRIRSRPPRLPRPRPRPVEVPRP	0.233
RRIRRRPPRLPRPRPRPRDEPRP	0.48
RRIRRRPPRLPRPRPRPKHKPRP	0.339
RRIRNRPPRLPRPRPRPKIAPRP	0.0241
RRIRTRPPRLPRPRPRPQRMPRP	-0.272
RRIRVRPPRLPRPRPRPYIIPRP	-0.519
RRIRLRPPRLPRPRPRPQETPRP	0.0529
RRIRSRPPRLPRPRPRPTQIPRP	0.048
RRIRARPPRLPRPRPRPFRCPRP	-0.0823
